# Test results published in US20200353078A1 (AstraZeneca / MedImmune, published 2020).
# B1: IL330180 scFv (scFv, V domains shown)
# VH: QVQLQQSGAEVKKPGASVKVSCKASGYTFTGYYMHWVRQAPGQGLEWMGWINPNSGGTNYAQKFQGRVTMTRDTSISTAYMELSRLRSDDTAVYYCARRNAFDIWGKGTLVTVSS
# VL: QPVLTQPPSVSEAPRQRVTISCSGSSSNIGNNAVNWYQQLPGTAPKLLIYRNNQRPSGVPDRFSGSKSGTSASLAISGLRSEDEADYYCAAWDDSLSGWVFGGGTKVNVL
# B2: IL-33 tryptic epitope peptide (full length synthetic epitope peptide) (peptide)
# peptide: MLMVTLSPTKDFWLHANNKEHSVELHK
# notes: Chemically synthesised; also called predicted tryptic IL-33 fragment
# B3: 33_640237-2B IgG1 (antibody, V domains shown)
# VH: EVQLLESGGGLVQPGGSLRLSCAASGFTFSSYAMSWVRQAPGKGLEWVSGIADDFTSTYYADPVKGRFTISRDNSKNTLYLQMNSLRAEDTAVYYCARDLWMMNYAGGLRYPFGYWGQGTMVTVSS
# VL: SYVLTQPPSVSVSPGQTASITCSGERMGDKYAAWYQQKPGQSPVLVIYRDTKRPSGIPERFSGSNSGNTATLTISGTQAMDEADYYCGVLKQDTGVFGGGTKLTVL
# notes: IgG1
# Key:
# [1] = target: T1, Cynomolgus IL-33 Flag®His (cynomolgus monkey); experiment: phage ELISA
# T1 construct: C-terminal FLAG 10xHis tag, E. coli; also called Mature Cynomolugus IL-33; cyno IL-33 FH
# T1 chain: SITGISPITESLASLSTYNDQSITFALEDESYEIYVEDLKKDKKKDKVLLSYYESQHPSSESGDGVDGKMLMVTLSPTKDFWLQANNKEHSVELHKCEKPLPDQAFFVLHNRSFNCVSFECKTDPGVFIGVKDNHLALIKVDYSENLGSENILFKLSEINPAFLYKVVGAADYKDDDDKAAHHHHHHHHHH
# Human IL-33 Flag®His [2] = target: T2, Human IL-33 Flag®His (human); experiment: phage ELISA
# T2 construct: Mature IL-33 with C-terminal FLAG 10xHis tag, from E. coli; biotinylated via free cysteines where used biotinylated; also called Mature Human IL-33_FH; human IL-33 FH
# T2 chain: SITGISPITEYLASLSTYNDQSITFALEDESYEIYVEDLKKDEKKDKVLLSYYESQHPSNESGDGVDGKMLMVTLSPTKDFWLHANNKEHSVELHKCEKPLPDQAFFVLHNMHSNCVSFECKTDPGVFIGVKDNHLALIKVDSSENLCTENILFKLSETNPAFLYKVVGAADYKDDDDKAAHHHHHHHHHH
# Mouse IL-33 Flag®His [3] = target: T3, Mouse IL-33 Flag®His (mouse); experiment: phage ELISA
# T3 construct: C-terminal FLAG 10xHis tag, E. coli; also called Mature Mouse IL-33_FH; mouse IL-33 FH
# T3 chain: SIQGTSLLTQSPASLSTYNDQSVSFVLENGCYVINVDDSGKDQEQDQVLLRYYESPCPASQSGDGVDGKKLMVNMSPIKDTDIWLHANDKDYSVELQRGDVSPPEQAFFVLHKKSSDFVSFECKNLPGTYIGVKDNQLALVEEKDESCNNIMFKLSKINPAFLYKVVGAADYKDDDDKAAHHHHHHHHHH
# [4] = target: T4, Human ST2-Fc (R&D Systems, or source not stated in the example) (human, UniProt Q01638 19-328); experiment: Biacore T100, ST2-Fc captured on Protein G', peptide as analyte
# T4 construct: extracellular domain; also called sST2.Fc; sST2
# T4 sequence (looked up): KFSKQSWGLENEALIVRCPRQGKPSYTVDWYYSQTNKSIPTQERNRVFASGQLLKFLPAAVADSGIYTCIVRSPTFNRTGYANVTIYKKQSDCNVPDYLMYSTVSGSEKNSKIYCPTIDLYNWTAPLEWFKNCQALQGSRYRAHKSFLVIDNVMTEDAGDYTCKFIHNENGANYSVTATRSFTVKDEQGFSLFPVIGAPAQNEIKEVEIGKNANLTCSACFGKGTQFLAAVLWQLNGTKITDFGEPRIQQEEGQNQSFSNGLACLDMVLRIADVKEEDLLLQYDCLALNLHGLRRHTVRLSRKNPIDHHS
# Excerpt: The identified peptide together with a truncate ([…]) and scrambled variants of both, were then chemically synthesised and used in confirmatory T100 Biacore (GE Healthcare) binding studies. Protein G′ (Sigma Aldrich, P4689) was covalently coupled to the surface of a CM5 sensor chip (GE Healthcare) using standard amine coupling reagents according to manufacturer's instructions. The protein G′ surface was used to capture H338L293 or ST2-Fc via the Fc domain to provide a surface density of approximately 290 RU per cycle. IL33 peptides prepared in HBS-EP+ buffer, at a range of concentrations were passed over the sensor chip surface. The surface was regenerated using two 10 mM Glycine washes of pH 1.7 and pH 1.5 between each injection of antibody. The resulting sensorgrams were evaluated using Biacore T100 evaluation software 2.0.3 (GE Healthcare) and fitted to a 1:1 Langmuir binding model, to provide relative binding data.
# [5] = target: Human IL-1 beta (R&D Systems) (human, UniProt P01584 117-269); experiment: HTRF: unlabelled test protein competes with biotinylated human IL33-01 for DyLight650 labelled 33_640237-2B IgG
# In short: (§1)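 HTRF competition: dilutions of unlabelled test protein competed with biotinylated human IL-33-01 (0.12 nM solution, with 0.75 nM streptavidin cryptate) for DyLight650-labelled 33_640087-7B or 33_640237-2B, in DPBS with 0.8 M KF and 0.1% BSA. Incubation was 4 h at RT, then 18 h at 4 °C. The 665/620 nm ratio gave % specific binding; IC50 by four-parameter fit.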
# Rat IL-33 (GenScript) = target: T5, Rat IL-33 (GenScript) (rat, UniProt Q66H70 109-264, limits assumed); experiment: as above
# T5 sequence (looked up): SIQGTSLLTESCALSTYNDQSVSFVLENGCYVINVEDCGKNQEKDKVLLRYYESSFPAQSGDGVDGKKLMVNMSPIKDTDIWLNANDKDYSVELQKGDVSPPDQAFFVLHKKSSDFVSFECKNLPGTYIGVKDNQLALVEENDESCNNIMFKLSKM
# In short: as §1
# [6] = target: T6, Human IL-1 alpha (R&D Systems) (human, UniProt P01583 113-271); experiment: as above
# T6 sequence (looked up): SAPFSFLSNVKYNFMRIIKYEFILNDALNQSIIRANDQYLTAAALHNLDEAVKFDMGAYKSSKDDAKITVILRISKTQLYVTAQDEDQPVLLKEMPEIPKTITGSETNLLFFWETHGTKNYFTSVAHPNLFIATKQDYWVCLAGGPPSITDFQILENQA
# In short: as §1
# His10/Avi Human IL33-01 = target: T7, His10/Avi Human IL33-01 (human); experiment: cell-based or functional assay
# T7 chain: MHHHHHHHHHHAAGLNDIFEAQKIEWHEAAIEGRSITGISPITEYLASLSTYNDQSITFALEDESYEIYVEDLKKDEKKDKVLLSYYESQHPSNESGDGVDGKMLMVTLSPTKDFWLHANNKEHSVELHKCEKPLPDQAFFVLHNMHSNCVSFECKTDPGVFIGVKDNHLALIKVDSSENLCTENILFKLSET
# [7] = target: T1, Cynomolgus IL-33 Flag®His; experiment: HTRF, test protein competing with biotinylated IL33-01 for DyLight650 labelled IgG
# Method: (§2) Human, cyno and mouse IL-33 FLAG® His (described in Example 1 and Table 21), Human IL-1 alpha and IL-1 beta (R&D Systems) (Table 21) or rat IL-33 (GenScript) were tested for inhibition of human IL-33 binding to DyLight650 labelled 33_640087-7B or DyLight650 labelled 33_640237-2B by adding 5 microlitres of each dilution of sample to a 384 well low volume assay plate (Costar, 3673). […] This was followed by the addition of 2.5 microlitres of a solution containing 0.12 nM biotinylated human IL-33-01 combined with 0.75 nM streptavidin cryptate detection (Cisbio International, 610SAKLB). All dilutions were performed in assay buffer containing 0.8 M potassium fluoride (VWR, 26820.236) and 0.1% bovine serum albumin (BSA, PAA, K05-013) in Dulbeccos PBS (Invitrogen, 14190185). Assay plates were incubated for 4 hours at room temperature followed by 18 hours at 4 degrees Celsius and time resolved fluorescence was read at 620 nm and 665 nm emission wavelengths using an EnVision plate reader (Perkin Elmer). Data were analysed by calculating the 665/620 nm ratio followed by the % Delta F values for each sample. The 665/620 nm ratio was used to correct for sample interference using Equation 1. The % Delta F for each sample was then calculated using Equation 2. The negative control (non-specific binding) was defined by replacing biotinylated human IL-33 combined with streptavidin cryptate detection with streptavidin cryptate detection only. The % Delta F values were subsequently used to calculate % specific binding as described in Equation 3. IC₅₀ values were determined using GraphPad Prism software by curve fitting using a four-parameter logistic equation (Equation 4).
# Human IL-33 Flag®His [8] = target: T2, Human IL-33 Flag®His; experiment: as above
# Method: as §2
# Mouse IL-33 Flag®His [9] = target: T3, Mouse IL-33 Flag®His; experiment: as above
# Method: as §2
binder,measurement,setting,value
B1,binding result,[1],no binding
same,binding result,Human IL-33 Flag®His [2],binds
same,binding result,Mouse IL-33 Flag®His [3],no binding
B2,binding result,[4],no binding
B3,binding result,[5],no binding (tested: about 10^-5.8 M)
same,binding result,Rat IL-33 (GenScript),no binding (tested: about 10^-5.5 M)
same,binding result,[6],no binding (tested: about 10^-5.8 M)
same,"IC50 (nM) vs. His Avi IL-33, Huvec IL-8 assay",His10/Avi Human IL33-01,0.067 nM
same,binding result,[7],binds
same,binding result,Human IL-33 Flag®His [8],binds
same,binding result,Mouse IL-33 Flag®His [9],no binding
